Results published in patent US10400249B2, “HPPD variants and methods of use” (priority 2014, dated 2019).
Where a chain is given by its changes, count along the chain named. Numbers in names are those of the source.

B1: PfG336F: reference PfHPPD mutant G336F (protein)
chain: MADLYENPMGLMGFEFIEFASPTPGTLEPIFEIMGFTKVATHRSKNVHLYRQGEINLILNNEPNSIASYFAAEHGPSVCGMAFRVKDSQKAYNRALELGAQPIHIDTGPMELNLPAIKGIGGAPLYLIDRFGEGSSIYDIDFVYLEGVERNPVGAGLKVIDHLTHNVYRGRMVYWANFYEKLFNFREARYFDIKGEYTGLTSKAMSAPDGMIRIPLNEESSKGAGQIEEFLMQFNGEGIQHVAFLTDDLVKTWDALKKIGMRFMTAPPDTYYEMLEGRLPDHGEPVDQLQARGILLDGSSVEGDKRLLLQIFSETLMGPVFFEFIQRKGDDGFGEFNFKALFESIERDQVRRGVLTAD
modifications: HPPD variant - Pf336F
B2: K325: PfHPPD variant A188G, R189C, P215N, E335P, G336F, A340E (protein)
chain: B1 chain with A188G, R189C, P215N, E335P, A340E
modifications: HPPD variant - K325
notes: PfHPPD variant A188G, R189C, P215N, E335P, G336F, A340E
B3: K357: PfHPPD variant A188G, R189C, E335P, G336F, A340E (protein)
chain: B1 chain with A188G, R189C, E335P, A340E
modifications: HPPD variant - K357
notes: PfHPPD variant A188G, R189C, E335P, G336F, A340E
B4: K250: PfHPPD variant A188G, R189C, P215L, E335P, G336F, A340E (protein)
chain: B1 chain with A188G, R189C, P215L, E335P, A340E
modifications: HPPD variant - K250
notes: PfHPPD variant A188G, R189C, P215L, E335P, G336F, A340E
B5: K363: PfHPPD variant Q226H, E335P, G336F, A340E (protein)
chain: B1 chain with Q226H, E335P, A340E
modifications: HPPD variant - K363
notes: PfHPPD variant Q226H, E335P, G336F, A340E
B6: K360: PfHPPD variant L200I, E335P, G336F, A340E (protein)
chain: B1 chain with L200I, E335P, A340E
modifications: HPPD variant - K360
notes: PfHPPD variant L200I, E335P, G336F, A340E
B7: K303: PfHPPD variant L200I, P215L, E335P, G336F, A340E (protein)
chain: B1 chain with L200I, P215L, E335P, A340E
modifications: HPPD variant - K303
notes: PfHPPD variant L200I, P215L, E335P, G336F, A340E

What was measured:
[1] = system: Pseudomonas fluorescens HPPD protein; assay: OD assay: HPPD activity and pI50 from HPP remaining after derivatisation with DNP; type: biochemical; conditions: for Activity DeltaE/24 min μg Protein: HPPD enzyme activity of the clone; for tolerance (pI50) DKN: inhibitor diketonitrile (DKN), negative log of molar concentration; for tolerance (pI50) MST: inhibitor mesotrione (MST); for tolerance (pI50) Cmpd. 2: inhibitor Cmpd. 2; for tolerance (pI50) TBT: inhibitor tembotrione (TBT)
Method: (§1) HPPD proteins were produced and purified as described in WO2011/076882. The activity of HPPD proteins in absence or presence of HPPD inhibitors was determined using either the so called OD assay or the HGD assay.
(§2) • a) The OD assay: The HPPD activity was determined colourimetrically by measuring the amount of HPP remaining in the assay mixture at the end of the incubation period after derivatisation of HPP with 2,4-dinitrophenylhydrazine (DNP) to form an amber-brown colored 2,4-dinitrophenylhydrazone under alkaline conditions. The assay was carried out at room temperature in Greiner F-bottom 96 well microplates. The assay mixture contained 50 mM Tris-HCl pH 7.8, 0.5 mM HPP, 10 mM ascorbate, 650 units of catalase and appropriate amounts of purified HPPD enzyme in a total assay volume of 100 μl. The reaction was started by the addition of enzyme. After an incubation time of 24 minutes, the reaction was stopped by the addition of 50 μl of a solution of 0.04% DNP dissolved in 3.8 N HCl. After a further 15-minute incubation period 100 μl of a 5 N KOH solution was added to the reaction mixture and the amount of unconsumed HPP was measured photometrically at 405 nm. Enzyme activity was calculated as the difference in E405 between assays lacking enzyme (negative control) and the enzyme containing assays (ΔE405=E405(negative control)−E405). Enzyme activity (nmol substrate consumed per min) was calculated from a calibration curve generated from HPP. pI50-values (the negative log value of the concentration of inhibitor necessary to inhibit 50% of the enzyme activity in molar concentration were determined from dose-response plots of HPPD activity versus inhibitor concentration tested (5.0×10^−6, 1.0×10^−5, 2.5×10^−5, 4.0×10^−5, 7.0×10^−5, 1.0×10^−4, 2.0×10^−4 and 5.0×10^−4M) using the 4 Parameter Logistic Model or Sigmoidal Dose-Response Model of the ID Business Solutions Ltd. XLfit software suite. The result “>5.6” means that the inhibition at the lowest inhibitor concentration tested was higher than 85% and the pI50-value could therefore not be precisely calculated within in the range of concentration of inhibitor tested. The result “<2.5” means that the inhibition at the highest inhibitor concentration tested was lower than 25% and the pI50-value could therefore not be precisely calculated within in the range of concentration of inhibitor tested. “n.d.” means not determined. • b) The HGD assay: With the HGD assay HPPD activity was measured at room temperature by adding appropriate amounts of HPPD to a solution of 200 mM Tris-HCl pH 7.6, 10 mM ascorbate, 20 μM FeSO4, 650 units of catalase, 8 μg HGA dioxygenase (HGA: homogentisate) and 600 μM HPP in a total volume of 1 ml. Initial reaction rates in the absence or presence of inhibitors were determined from the increase in absorbance at 318 nm due to the formation of maleylacetoacetate (ε318=11,900 M−1 cm-1). pI50-values (the negative log value of the concentration of inhibitor necessary to inhibit 50% of the enzyme activity in molar concentration were determined from dose-response plots of HPPD activity versus inhibitor concentration tested using the 4 Parameter Logistic Model or Sigmoidal Dose-Response Model of the ID Business Solutions Ltd. XLfit software suite. Due to the UV absorption of the HPPD inhibitors tested, inhibitor concentrations >100 μM could not be tested. The result “<4” means that the inhibition at 100 μM inhibitor concentration was lower than 25% and the pI50-value could therefore not be precisely calculated within in the range of concentration of inhibitor tested. “n.d.” means not determined. The HGD assay allowed to continuously follow HPPD-catalyzed HGA formation over time was therefore used to determine the inhibition type of the HPPD inhibitors tested. […] When in the presence of an inhibitor the HPPD activity was inhibited but the inhibition was found not to […] in a time-dependent manner, the inhibitor was called reversible (abbreviation “rev”). […]

[2] = system: Pseudomonas fluorescens HPPD protein; assay: HGD assay: HPPD activity coupled to HGA dioxygenase, pI50 and type of inhibition (time-course); type: biochemical; conditions: for pI50-values of Cmpd. 2: assay not given, follows the time-course analysis (HGD assay)
Method: as §1, §2

Molecule	Activity DeltaE/24 min μg Protein [1] [DeltaE/24 min μg Protein]	tolerance (pI50) DKN [1]	tolerance (pI50) MST [1]	tolerance (pI50) DKN ([2]; inhibitor diketonitrile (DKN), HGD assay)	tolerance (pI50) MST ([2]; inhibitor mesotrione (MST), HGD assay)	tolerance (pI50) TBT ([2]; inhibitor tembotrione (TBT), HGD assay)	tolerance (pI50) Cmpd. 2 [1]	tolerance (pI50) TBT [1]	mechanism of inhibition by Cmpd. 2, time-course of inhibition [2]	pI50-values of Cmpd. 2 [2]
B1	0.66	5.3	5.6	5.1	5.1	5.9	–	–	–	–
B2	0.41	<2.5	3.6	–	–	–	5.6	4.6	fully reversible inhibitor	5.5
B3	0.47	3.5	4.1	–	–	–	5.4	5.3	fully reversible inhibitor	5.1
B4	0.07	<2.5	3.0	–	–	–	4.6	3.8	fully reversible inhibitor	< 4
B5	0.20	3.8	4.3	–	–	–	5.4	5.5	fully reversible inhibitor	–
B6	0.28	3.6	4.3	–	–	–	5.3	5.3	fully reversible inhibitor	5.5
B7	0.008	–	3.2	–	–	–	4.6	4.2	fully reversible inhibitor	5.0
